The values below come from patent US20230303685A1 (ELECTRA THERAPEUTICS, published 2023).

Assay [1] deals with T1, human SIRPα V1-His monomer (human, UniProt P78324 31-373, limits assumed).
T1 construct: 'SIRP-His monomer protein' of the Octet assay; also called SIRP-His; not shown: His tag
The assay can be described thus: BLI (Octet); antibody on anti-mouse IgG capture tip, SIRP-His monomer at 100, 33.3, 11.1 nM, 1:1 fit, mean KD. Here is the method:
(§1) Select SIRP antibodies were tested for their affinities to human SIRPα, SIRPβ1, and SIRPγ using a biolayer interferometry (BLI) Octet system (Pall ForteBio). Each SIRP antibody with rat or mouse Fc was immobilized on a biosensor tip by an anti-mouse IgG capture (AMC). Antibodies with human Fc were digested with gingipain K enzyme to yield monomeric F(ab′), biotinylated, then coated onto streptavidin biosensors. […] The biosensors were then exposed to wash buffer to measure off-rate kinetics. The resulting kinetic data were analyzed and fitted using a 1:1 binding model with kₒₙ and kdis fitted separately at each SIRP-His protein concentration. KD affinities were calculated as kdis to kₒₙ ratio at each concentration of SIRP-His and averaged.

The target in assay [2] is T2, Human SIRPγ CHO.
T2 construct: also called human SIRPγ on CHO cells
T2 chain: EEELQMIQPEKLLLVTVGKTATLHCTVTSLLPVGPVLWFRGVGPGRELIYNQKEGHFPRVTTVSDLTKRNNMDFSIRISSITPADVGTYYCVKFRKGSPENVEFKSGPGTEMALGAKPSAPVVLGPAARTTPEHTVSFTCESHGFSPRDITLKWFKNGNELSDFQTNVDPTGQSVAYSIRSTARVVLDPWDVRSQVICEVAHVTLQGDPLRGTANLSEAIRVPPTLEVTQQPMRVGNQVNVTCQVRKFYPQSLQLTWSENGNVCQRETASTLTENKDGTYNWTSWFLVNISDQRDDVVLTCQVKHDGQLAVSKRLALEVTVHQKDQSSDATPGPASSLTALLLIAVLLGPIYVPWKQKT
Put plainly: flow cytometry, stably transfected CHO cells, antibody titrated, labelled anti-rat or anti-mouse IgG, MFI. On the procedure: Selected antibodies were tested for binding to stably transfected human SIRPα, SIRPβ1 (co-transfected with DAP12), or SIRPγ Chinese hamster ovary (CHO) cells via flow cytometry. A titration of SIRP antibodies was added to the cells and detected using a fluorescently labelled secondary antibody. Graph depicts the median fluorescence intensity (MFI) at each concentration.
(A flow cytometer gives signals particle by particle.)

Assay [3] deals with T3, Human SIRPγ.
T3 construct: also called human SIRPγ extracellular domain, plate-coated
T3 chain: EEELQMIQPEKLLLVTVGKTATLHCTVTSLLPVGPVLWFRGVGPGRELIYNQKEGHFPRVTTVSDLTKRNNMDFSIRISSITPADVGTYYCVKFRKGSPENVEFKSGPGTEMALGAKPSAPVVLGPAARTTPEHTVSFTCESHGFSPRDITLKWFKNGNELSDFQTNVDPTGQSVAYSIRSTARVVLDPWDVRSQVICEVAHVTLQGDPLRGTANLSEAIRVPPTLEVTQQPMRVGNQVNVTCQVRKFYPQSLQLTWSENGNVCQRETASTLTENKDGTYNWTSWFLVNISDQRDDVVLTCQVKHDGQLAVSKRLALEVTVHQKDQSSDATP
Put plainly: ELISA, extracellular domain coated at 2 µg/mL, purified antibody titrated, anti-rat or anti-mouse IgG, chemiluminescence. On the procedure: (§2) Select SIRP antibodies were purified by Protein G from hybridoma supernatants and analyzed in a titration via ELISA. Briefly, 2 μg/mL of extracellular domain of each of the SIRPs was coated onto high protein-binding plates and blocked. Purified antibodies were added in a titration to the coated plates. The antibodies were detected by an anti-rat IgG or an anti-mouse IgG antibody and a chemiluminescent substrate.

For assay [4], the target named is T4, human SIRPγ-His monomer (human).
T4 construct: 'SIRP-His monomer protein' of the Octet assay; also called SIRP-His; not shown: His tag
Put plainly: BLI (Octet); antibody on anti-mouse IgG capture tip, SIRP-His monomer at 100, 33.3, 11.1 nM, 1:1 fit, mean KD. Here is the method:
as §1
Background: BLI is a label-free optical method that tracks binding on a fibre tip over time.

Assay [5] addresses T5, Human SIRPγ conjugated to an Fc region (human).
T5 construct: also called SIRPγ-Fc; SIRP-Fc; not shown: Fc region
Put plainly: BLI blocking; 200 nM antibody pre-incubated with 20 nM SIRPγ-Fc, binding to immobilised CD47-His (competitor), % of response of SIRPγ-Fc alone.

Assay [6] concerns the target T6, human SIRPβ1-His monomer (human, UniProt O00241 30-371).
T6 construct: 'SIRP-His monomer protein' of the Octet assay; also called SIRP-His; not shown: His tag
Put plainly: BLI (Octet); antibody on anti-mouse IgG capture tip, SIRP-His monomer at 100, 33.3, 11.1 nM, 1:1 fit, mean KD. Here is the method:
as §1

Assay [7] addresses T7, human SIRPα V1 extracellular domain, monomeric (human, UniProt P78324 31-373).
T7 construct: also called hSIRPα V1
The assay can be described thus: SPR (Biacore); antibody captured by anti-IgG on chip, monomeric SIRPα extracellular domain as analyte, 1:1 model. Here is the method:
(§3) Selected antibodies were tested for their affinities to two hSIRPα variants (V1 and V2), and to cynomolgus monkey (herein referred to as “cyno”) SIRPα. The affinities of these SIRP antibodies were determined using surface plasmon resonance. The SIRP antibodies were flowed onto a chip and captured by an anti-mouse IgG or an anti-human IgG covalently coupled to the surface of the chip. A three-point titration of the extracellular binding domain of hSIRPα was performed per the manufacturer's recommended protocols.

The target in assay [8] is T8, cynomolgus monkey SIRPα extracellular domain, monomeric (cynomolgus monkey, UniProt A0A2K5VYQ9 31-372).
T8 construct: extracellular domain; also called Cyno SIRPα
Described as above. On the procedure: as §3

Assay [9] addresses T9, Cynomolgus Monkey SIRPγ (Macaca fascicularis).
T9 construct: extracellular domain; also called cyno SIRPγ extracellular domain, plate-coated
The assay can be described thus: ELISA, extracellular domain coated at 2 µg/mL, purified antibody titrated, anti-rat or anti-mouse IgG, chemiluminescence. Here is the method: as §2

Assay [10] has as its target T10, Human SIRPβ1.
T10 construct: also called human SIRPβ1 extracellular domain, plate-coated
T10 chain: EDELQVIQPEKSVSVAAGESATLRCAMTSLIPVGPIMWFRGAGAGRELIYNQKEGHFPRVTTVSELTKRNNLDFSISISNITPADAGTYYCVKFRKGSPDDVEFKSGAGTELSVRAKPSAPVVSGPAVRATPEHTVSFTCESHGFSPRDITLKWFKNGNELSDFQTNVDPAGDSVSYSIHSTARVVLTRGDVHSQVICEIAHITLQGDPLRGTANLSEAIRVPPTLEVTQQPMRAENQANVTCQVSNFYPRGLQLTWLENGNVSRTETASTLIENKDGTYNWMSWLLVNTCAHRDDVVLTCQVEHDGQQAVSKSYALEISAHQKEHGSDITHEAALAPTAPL
The description is as above. Here is the method:
as §2

The target of assay [11] is T7, human SIRPα V1 extracellular domain, …. The assay is described as above. On the procedure:
as §2

The target of assay [12] is T11, human SIRPα V2 extracellular domain, monomeric (human, UniProt P78324 31-370).
T11 construct: also called hSIRPα V2
The assay can be described thus: SPR (Biacore); antibody captured by anti-IgG on chip, monomeric SIRPα extracellular domain as analyte, 1:1 model. On the procedure: as §3

For assay [13], the target named is T3, Human SIRPγ. The assay can be described thus: ELISA, extracellular domain coated at 1 µg/mL, purified antibody titrated, anti-human IgG, chemiluminescence. Here is the method:
Select SIRP antibodies were purified by Protein G from hybridoma supernatants and analyzed in a titration via ELISA. Briefly, 1 μg/mL of extracellular domain SIRPα was coated onto high protein-binding plates and blocked. Purified antibodies were added in a titration to the coated plates. The antibodies were detected by an anti-rat IgG antibody and a chemiluminescent substrate.
FIGS. 3A-3C show binding curves of SIRP antibodies and two isotype controls with human Fc to human SIRPα V1, human SIRPβ1, human SIRPγ and cynomolgus monkey SIRPα by ELISA. […] Isotype control 1 was an unrelated human IgG1 antibody with irrelevant CDRs. Isotype control 2 was the same as isotype control 1 but contained the same amino acid substitutions in the Fc region as some of the selected SIRP antibodies for increased FcγR binding (referring to Table 11). DNA was transiently transfected into CHO cells for 7 days. Antibodies were purified by Protein A from cell supernatants and analyzed in a titration via ELISA as previously described in FIGS. 2A-2B using an anti-human IgG antibody as the detection antibody.

B1: Antibody 9 (antibody, V domains shown)
VH: QVQLQQWGAGLLKPSETLSLTCAVYGGSFSTYYWNWIRQPPGKGLEWIGEINHSGSTNYNPSLKSRVIISVDTSKNQFSLKLSSVTAADTAVYYCASSHYGSGSFPDSYGMDVWGQGTTVTVSA
VL: SYELTQSPSVSVSPGQTASITCSGDKLGDRYAWWYQQKPGQSPVLVIYQDDKRPSGIPERFSGSNSGNTATLTISGTQAMDEADYYCQAWDSSTAVFGGGTKLTVL
notes: Human variable region, rat IgG2b Fc; from hybridoma
The Kd is the equilibrium constant for the complex coming apart. B1 yielded a Kd in [1] of 1.24 nM. Moreover, the binding result in assay [2] and in [3] was “binds” in each case.

B2: Antibody 10 (antibody, V domains shown)
VH: EVQLLESGGGLVQPGGSLRLSCAASGFTFSSYAMSWVRQAPGKGLEWVSAISGSGGDTYYADSVKGRFTISRDNSKSTLYLQMNSLRAEDTAVYYCAKDGGSYYPPFDYWGQGTLVTVSS
VL: SYELTQPPSVSVSPGQTASITCSGDKLGDRYACWYQQKPGQSPVLVIYQDTKRPSGIPERFSGSNSGNTATLTISGTQAMDEADYYCQACDSSTAVFGGGTKLTVL
notes: as for B1
Take B2: the Kd amounted to 57.6 nM in assay [1] and 1.37 nM in [4]. Moreover, the binding result in assay [2] and in assay [3] was “binds” in each case. Also, the “SIRPγ-CD47 Response (%)” value in [5] was -4.29%.

B3: Antibody 3 (antibody, V domains shown)
VH: QVQLQESGPGLVKPSGTLSLTCAVSGGSISSSNWWSWVRQPPGKGLEWIGEIYHSGNTNYNPSLKSRVTISVDKSKNQFSLKLSSVTAADTAVYYCAREGIEGYYFYYGMDVWGQGTTVTVSS
VL: DIQLTQSPSFLSASVGDRVTITCRASQGISGYLDWYQQKPGKAPKLLIYAASTLQRGVPSRFSGSGSGTDFNLTISSLQPEDFATYYCQQFTSDLITFGQGTRLEIK
notes: as for B1
In general, EC50 (read off the curve) refers to the concentration giving half of the maximal effect. On to B3, for which the Kd in [1] was found to be 3.1 nM; in [6], 7500 nM; in assay [4], 103 nM; in assay [7] it was 4.57 nM; in [8], 513 nM. For the same molecule, the concentration giving a half-maximal response (EC50 (read off the curve)) in assay [2] is about 0.2 µg/mL; in assay [9], about 0.1 µg/mL; in assay [10], about 0.06 µg/mL; in [3] it was about 0.06 µg/mL; in [11], about 0.1 µg/mL. The “SIRPγ-CD47 Response (%)” value in assay [5] was -7.23%.

B4: Antibody 24 (antibody, V domains shown)
VH: QVQLQESGPGLVKPSGTLSLTCAVSGGSISSSNWWSWVRQPPGKGLEWIGEIYHSGNTNYNPSLKSRVTISVDKSKNQFSLKLSSVTAADTAVYYCAREGIEGYYFYYGMDVWGQGTTVTVSS
VL: DIQLTQSPSFLSASVGDRVTITCRASQGISGYLDWYQQKPGKAPKLLIYAASTLQRGVPSRFSGSGSGTDFNLTISSLQPEDFATYYCQQFTSDLITFGQGTRLEIK
notes: Variable regions of Antibody 3
For the molecule B4, the Kd was determined as 2.89 nM in [7], 22.6 nM in assay [12] and 15 nM in [8]. In assay [13], the 50% effective concentration (EC50 (read off the curve)) is about 0.02 µg/mL. Moreover, the “SIRPγ-CD47 Response (%)” value in [5] was -37.9%.

B5: Antibody 14 (antibody, V domains shown)
VH: QVQLVESGGGVVQPGRSLRLSCVASGFIFSNYGMHWVRQAPGKGLEWVAVISYDGRNEDHVDSVKGRFTISRDNSKNTLYLQMNSLRAEDTAVYYCAKGSGSYYFDYWGQGTLVTVSS
VL: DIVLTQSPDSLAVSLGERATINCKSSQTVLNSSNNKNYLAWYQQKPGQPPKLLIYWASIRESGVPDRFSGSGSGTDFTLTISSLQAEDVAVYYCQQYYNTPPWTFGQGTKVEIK
notes: as for B1
In assay [4], B5 returned a Kd of 38.7 nM. Also, the binding result in assay [2] is reported as “binds”. For the same molecule, the “EC50 (read off the curve)” value was about 0.09 µg/mL in [9] and about 0.05 µg/mL in [3]. Also, the “SIRPγ-CD47 Response (%)” value in [5] came out at 14.4%.

B6: Antibody 23 (antibody, V domains shown)
VH: QVQLQESGPGLVKPSGTLSLTCAVSGGSISSSNWWSWVRQPPGKGLEWIGEIYHSGSTNYNPSLKSRVTISVDKSKNQFSLKLSSVTAADTAVYYCARRGIWFGVGPWGQGTLVTVSS
VL: DIVMTQSPLSLPVTPGEPASISCRSSQSLLHGNGFNYLDWYLQKPGQSPQLLIYLGSNRASGVPDRFTGSGSGTDFTLKISRVEAEDVGVYYCMQGLQTPRTFGQGTKVEIK
notes: Variable regions of Antibody 1
For B6, the Kd in assay [7] came to 323 nM; in assay [12] it was 374 nM; in assay [8], 384 nM. Moreover, the concentration for a half-maximal effect (EC50 (read off the curve)) in assay [13] is about 0.04 µg/mL.
